Experimental data published in PMC7509637 (Advanced Science, 2020).
Entries after “also recorded” stand apart in the source; their conditions may differ.

Columns and labels:
zebrafish larvae [1] = assay: Congo red imaging of Aβ fibrillization in zebrafish larval brain; format: in vivo, zebrafish (AB, Danio rerio); details: for Congo red fluorescence / Aβ fibrillization in larval brain (in words): 2 d postinjection
Experimental: (§1) Aβ (HFIP‐treated) was dissolved in PBS (pH 7.4) to make a stock solution. Aβ (100 × 10^−15 M) was injected into the cerebroventricular space of one week old zebrafish larvae. Aβ with FapCS was injected at a 10:1 molar ratio (Aβ:FapCS, 100 × 10^−15:10 × 10^−15 M). PBS alone and untreated larvae were used as negative controls. Zebrafish larvae were anesthetized by adding a few drops of tricaine (0.4%) in the petri dish. When larvae stopped to move in response to the tapping stimuli, the larvae were transferred to an injection template made from 1% agarose gel. Microinjection of Aβ was performed with a calibrated microneedle and pneumatic microinjection system (PV830 WPI), under a stereomicroscope. The injection pressure was set to 20 psi, the injection volume was 10 nL, and the injections were made with a micromanipulator. The tip of the needle was inserted into the ventricular space of larvae and penetration across the soft skin of dorsal tissue (central meeting point of both telencephalons) was not more than 0.3 mm. After microinjection, the larvae were transferred to the fresh Holtfreter's buffer in petri dish and incubated at 28 ± 0.5 °C for further observation.
To monitor Aβ fibrillization in the brain of zebrafish larvae, the Aβ or Aβ + FapCS injected larvae were further injected with Congo red 2 days or one week posttreatment. Congo red (100 × 10^−15 M) was injected to the cerebroventricular space of the zebrafish larvae and placed back in Holtfreter's buffer (1 h) to allow staining of Aβ plaques in the brain tissues of larvae and elimination of excess dye. Whole mount imaging of zebrafish larvae was performed via the brightfield and red fluorescence channels of a fluorescence microscope. All images were captured under the same exposure and intensity settings of the microscope. Relative red fluorescence intensities were measured from the images by using Fiji ImageJ and represented as fraction of 1. Aβ at one week was considered as a positive control (100% or fraction 1) while buffer only was considered as a negative control (0% or fraction 0).

zebrafish larvae [2] = assay: Behavioral pathology of zebrafish larvae (Zebrabox); format: in vivo, zebrafish (AB, Danio rerio); details: 2 d postinjection, 1 h observation
Experimental: as §1, with “After microinjection, the larvae were transferred to the fresh Holtfreter's buffer in petri dish and incubated at 28 ± 0.5 °C for further observation.” left out
Behavior of zebrafish larvae was observed by an automated zebrafish behavior recording system Zebrabox (Viewpoint). […] The trajectories of the zebrafish movements were also recorded by the instrument and all behavior measurements were done in a 96‐well plate with one larva per well. […]

adult zebrafish brain = assay: TUNEL assay in brain of adult zebrafish; format: in vivo, zebrafish (AB, Danio rerio); details: for TUNEL assay, DNA damage / cell death (in words): n = 3
Experimental: Adult zebrafish (10 months) were employed for the study. Prior to microinjection, adult zebrafish were anesthetized by placing them in a beaker filled with ice‐chilled tricaine (0.01% in Holtfreter's buffer) for 20 s. The samples of Aβ alone and Aβ with FapCS or bacterial biofilm fragments were injected to the cerebroventricular space of adult fish with a 1 µL Hamilton glass syringe. The concentration of the Aβ peptide was 40 × 10^−6 M (in PBS, pH 7.4) while FapCS or biofilm fragments were included at a 10:1 ratio (Aβ:FapCS or biofilm fragments). The needle penetrated between left and right telencephalon for not more than 1 mm and injection volume was 1 µL. The syringe was washed with ethanol and PBS in between the injections. The injections were made under a stereomicroscope and fish were held in place with forceps. After microinjection, the fish was placed back in the water tank for recovery.
The deposition of Aβ, depletion of synaptophysin positive cells and TUNEL assay were measured by IHC. The adult fish, at 4 d or 2 weeks postinjection with Aβ and Aβ with FapCS or biofilm fragments, were euthanized by placing in ice‐chilled tricaine (0.4% in Holtfreter's buffer) for 1 min. The head of the fish was separated at pectoral fin point with a sharp blade and fixed in paraformaldehyde as described in the “Animal husbandry and ethics statement” section. The fixed heads were dehydrated by dipping in gradual concentration of ethanol, i.e., 20%, 40%, 60%, 80%, and 100% with 10 min at each step. The heads were treated with 20% sucrose overnight, mounted with Tissue Trek OCT mounting medium at −20 °C. The heads were then sectioned into […] section with a cryostat. The sections were mounted on a gelatinized glass slide and immunostained with antibodies. The sections were dried, washed thrice in PBS (pH 7.4), and TritonX‐100 (0.05% in PBS) for 5 min each. […] The sections were imaged by a fluorescence microscope and fluorescence intensities were measured from the images with Fiji ImageJ analysis.

Aβ = target: T1, Aβ (Homo sapiens, UniProt P05067); assay: Static light scattering (SLS) of Aβ fibrillar growth; format: biochemical; details: ratio as for ThT assay, Malvern Zetasizer Nano, n = 3
T1 construct: purchased Anaspec Inc
Experimental: Increases in the size of Aβ in the presence and absence of FapCS or bLgS were monitored by SLS. Solution of Aβ with FapCS or bLgS, at a similar ratio as for the ThT assay, was prepared and incubated. SLS measurements were performed at different time intervals using a Malvern Zetasizer Nano. The parameters were fixed at 7 for attenuator and 4.20 mm for cell position. Quartz cells with low volume capacity (100 µL) were used. The light scattering intensities (kilo counts per sec) and the refractive indices of the samples, buffer alone and toluene were measured.

amyloid beta [Aβ]
Congo red fluorescence / Aβ fibrillization in larval brain (in words) (zebrafish larvae [1]): no fibrillization was observed | larval swimming behavior (in words) (zebrafish larvae [2]): slightly lower movement frequency | TUNEL assay, DNA damage / cell death (in words) (adult zebrafish brain; 2 weeks postinjection): neuronal cell death; also recorded: DNA damage per the TUNEL assay | TUNEL assay, DNA damage / cell death (in words) (adult zebrafish brain; 4 d postinjection): negative TUNEL assay

B1: FapCS: FapC seeds obtained by sonication of mature FapC fibrils (P. aeruginosa) (protein)
chain: GNEGGWHPPKPNPQSNNKGGATALVVDTQQNYNNKVSNFGTLNNASVSGSIKDASGNVGVNVAAGDNNQQANAAALASADASFVFGTATASTSVLQSGYGNTLNNYSNPNTASLSNSANNVSGNLGVNVAAGNFNQQKNDLAAAVSNGQYSTAGSAASQTSTGNTTVNSANYAYGGTYVSLKLNADGSYKGTSDQIGDVYLDTWEGQTHPGGSNTGHIDVDSQAQGAKDLNHDGGAFAFKEKGDVDLKGTVSGFIPAIVGFKTPVTNNASLSNSLQNVSGNVGVNIAAGGGNQQSNSLSIAAGCSSCPAGGESLGF
Aβ fibrillar growth by SLS (Aβ): significantly more rapid Aβ fibrillar growth; also recorded: rapid growth in the size of Aβ fibrils | Congo red fluorescence / Aβ fibrillization in larval brain (in words) (zebrafish larvae [1]): insignificant fluorescence was observed; also recorded: did not show any retention of Congo red fluorescence in the brain | Congo red fluorescence in larval brain (in words) (zebrafish larvae [1]; one week postinjection, Figure S12A): insignificant fluorescence was observed | larval swimming behavior (in words) (zebrafish larvae [2]): significantly aggravated (**, P < 0.005) Aβ toxicity and reduced the movement frequency and total travel distance | DNA damage / toxicity (in words) (adult zebrafish brain; FapCS alone, 4 × 10^−6 M, Figure S13): no DNA damage; also recorded: non‐toxic nature
